Experimental data: patent US8846873B2, “Antibodies directed to GPNMB and uses thereof” (Celldex Therapeutics, Inc., priority 2004, dated 2014)

T1: GPNMB (Homo sapiens, UniProt Q14956)
T1 construct: made in house; host or cells: HEK 293
T1 sequence (Q14956 23-492): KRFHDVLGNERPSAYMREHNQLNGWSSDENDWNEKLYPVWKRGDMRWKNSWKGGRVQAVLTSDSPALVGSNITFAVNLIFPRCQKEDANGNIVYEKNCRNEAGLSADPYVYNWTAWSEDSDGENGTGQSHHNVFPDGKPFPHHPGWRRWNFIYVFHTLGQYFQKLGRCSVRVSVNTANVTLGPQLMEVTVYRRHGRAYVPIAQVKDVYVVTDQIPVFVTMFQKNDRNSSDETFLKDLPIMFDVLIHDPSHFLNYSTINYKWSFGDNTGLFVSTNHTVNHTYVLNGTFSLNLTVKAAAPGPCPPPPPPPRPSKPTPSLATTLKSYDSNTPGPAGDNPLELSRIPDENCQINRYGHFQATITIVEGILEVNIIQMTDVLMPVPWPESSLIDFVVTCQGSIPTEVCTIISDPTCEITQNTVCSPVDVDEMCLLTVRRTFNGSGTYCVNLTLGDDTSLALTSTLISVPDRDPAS


Key:
GPNMB [1] = biological target: T1, GPNMB; assay: BiaCore 2000 biosensor binding of hybridoma supernatant mAb to GPNMB; settings: mAb captured on protein A, GPNMB 880 nM, 1:1 kinetic model
Protocol: Certain Hybridoma cell supernatants (29) were analyzed for binding to GPNMB by BiaCore® 2000 biosensor equipped with a research-grade CMS sensor chip. A 1:25 dilution of cell supernatant was passed over a protein A surface for 5 min followed by washing the surface for 10 mins. Subsequently, GPNMB was injected for 90 sec. over the surface at a concentration of 880 nM followed by dissociation. Double-referenced binding data were obtained by subtracting the signal from a control flow cell and subtracting the baseline drift of a buffer injected just prior to the antigen injection. GPNMB binding ddata for each mAb was normalized for the amount of mAb captured on each surface. Normalized, drift corrected responses were also measured. The sensorgrams were fit to a simple 1:1 kinetic model.

GPNMB [2] = biological target: T1, GPNMB; assay: ELISA of hybridoma supernatants for binding to GPNMB
Protocol: After 14 days of culture, hybridoma supernatants were screened for GPNMB specific monoclonal antibodies. In the Primary screen, the ELISA plates (Fisher, Cat. No. 12-565-136) were coated with 50 μL/well of GPNMB (1 μg/mL) in Coating Buffer (0.1 M Carbonate Buffer, pH 9.6, NaHCO3 8.4 g/L), then incubated at 4° C. overnight. After incubation, the plates were washed with Washing Buffer (0.05% Tween 20 in PBS) three times. 200 μL/well Blocking Buffer (0.5% BSA, 0.1% Tween 20, 0.01% Thimerosal in 1×PBS) were added and the plates were incubated at room temperature for 1 h. After incubation, the plates were washed with Washing Buffer three times. Aliquots (50 μL/well) of hybridoma supernatants and positive and negative controls were added, and the plates were incubated at room temperature for 2 h. The positive control used throughout was serum from the relevant GPNMB immunized XenoMouse® mouse and the negative control was serum from the KLH-immunized relevant strain of XenoMouse® mouse. After incubation, the plates were washed three times with Washing Buffer. 100 μL/well of detection antibody goat anti-huIgGfc-HRP (Caltag, Cat. No. H10507, using concentration was 1:2000 dilution) was added and the plates were incubated at room temperature for 1 hour. After incubation, the plates were washed three times with Washing Buffer. 100 μl/well of TMB (BioFX Lab. Cat. No. TMSK-0100-01) was added, and the plates were allowed to develop for about 10 minutes (until negative control wells barely started to show color). 50 μl/well stop solution (TMB Stop Solution (BioFX Lab. Cat. No. STPR-0100-01) was then added and the plates were read on an ELISA plate reader at a wavelength of 450 nm.
Hybridoma supernatants were screened for binding to GPNMB by ELISA as described above in Example 2.

TK10 cells = assay: FACS anti-GPNMB staining; assay type: binding, human; settings: primary antibody 1 μg/mL
[3] = system: normal and tumor human tissue microarrays; assay: GPNMB immunohistochemistry (IHC) analysis
Protocol: Anti-GPNMB monoclonal antibodies were evaluated for reactivity with frozen and fixed tissue specimens. Tissue sections (5 μm) were cut from formalin fixed and paraffin embedded tissue samples and were rehydrated through incubations in xylene and a graded ethanol series terminating in PBS. Endogenous peroxidase activity was quenched in a 3% solution of hydrogen peroxide in methanol.
Tissue sections were blocked in blocking buffer (5% BSA (Sigma), 1% goat serum (Jackson Immunolabs, West Grove, Pa.) in PBS) for 1 hour. Primary and secondary antibodies were precomplexed in 5% BSA and 1% goat serum in PBS for 1 hour at 37° C. at a molar ratio of approximately 10:1 of anti-GPNMB or control IgG to secondary biotinylated goat anti-human IgG (Jackson Immunolabs). Complexes were blocked with a 1:2000 dilution of human serum and incubated again for 1 hour at 37° C. Tissue sections were incubated with anti-GPNMB antibody or isotype control antibody complexes diluted in blocking buffer for 1 hour. Sections were washed in 3 changes of PBS for 5 to 10 minutes each and incubated with a 1:200 dilution of streptavidin conjugated horseradish peroxidase (Jackson Immunolabs) in blocking buffer for 30 minutes and then washed as before. Antibody was detected using DAB reagent (Vector labs). […]

GPNMB [4] = biological target: T1, GPNMB; assay: Binning of antibodies (Luminex competitive binding); settings: three bins of six anti-GPNMB antibodies
Protocol: Certain antibodies, described herein were binned in accordance with the protocol described in U.S. Patent Application Publication No. 20030157730. MxhIgG conjugated beads are prepared for coupling to primary antibody. The volume of supernatant needed is calculated using the following formula: (n+10)×50 μL (where n=total number of samples on plate). Where the concentration is known, 0.5 μg/mL is used. Bead stock is gently vortexed, then diluted in supernatant to a concentration of 2500 of each bead per well or 0.5×10^5/mL and incubated on a shaker in the dark at RT overnight, or 2 hours if at a known concentration of […]. Following aspiration, 50 μL of each bead is added to each well of filter plate, then washed once by adding 100 μL/well wash buffer and aspirating. Antigen and controls are added to filter plate 50 μL/well then covered and allowed to incubate in the dark for 1 hour on shaker. Following a wash step, a secondary unknown antibody is added at 50 μL/well using the same dilution (or concentration if known) as is used for the primary antibody. The plates are then incubated in the dark for 2 hours at RT on shaker followed by a wash step. Next, 50 μL/well biotinylated mxhIgG diluted 1:500 is added and allowed to incubate in the dark for 1 hour on shaker at RT. […]

Molecule	Kd (GPNMB [1])	ka (GPNMB [1])	kd (GPNMB [1])	Avg OD (GPNMB [2]; 12.3 ng/mL)	Avg OD (GPNMB [2]; 37 ng/mL)	Avg OD (GPNMB [2]; 111 ng/mL)	Avg OD (GPNMB [2]; 333 ng/mL)	Avg OD (GPNMB [2]; 1 μg/mL)	Avg OD (GPNMB [2]; 3 μg/mL)	Bin (GPNMB [4])	Geo Mean Ratio of anti-GPNMB Staining (relative to pK16) (TK10 cells)	staining of tissue specimens [3]
Mab1.10.2: human anti-GPNMB antibody; VH SEQ ID NO: 2, VL SEQ ID NO: 11 (antibody, listed as Homo sapiens, V domains shown) VH: QVQLQESGPGLVKPSETLSLTCTVSGDSISNYYWSWIRQPPGKGLEWIGYFYYSGSTNYNPSLKSRVTISVDTSKNQFSLKLSSVTAADTAVYYCARDRGWADYWGQGTLVTVSSA VL: EIVLTQSPGTLSLSPGERATLSCRTSQSISSSYLAWYQQKPGQVPRLLIYGASSRATGIPDRFSGSGSGTDFTLTISRLEPEDFAVYYCQQYGSSITFGQGTRLEIKR	118 nM	3955 M⁻¹ s⁻¹	0.000466 s⁻¹	–	–	–	–	–	–	–	–	–
Mab1.2.2: human anti-GPNMB antibody; VH SEQ ID NO: 38, VL SEQ ID NO: 47 (antibody, listed as Homo sapiens, V domains shown) VH: ITLKESGPTLVKPTQTLTLTCTFSGFSLSAGGVGVGWIRQPPGKALEWLALIYWNDDKRYSPSLRSRLTITKDTSKNQVVLTITNMDPVDTATYYCAHSHYDYDWGSYFDYWGQGTLVTVSSA VL: DIVMTQTPLSLPVTPGEPASISCRSSQSLLDSDDGNTYLDWYLQKPGQSPQLLIYTLSYRASGVPDRFSGSGSGTDFTLNISRVEAEDVGVYYCMQRIEFPITFGQGTRLEIKR	96 nM	9257 M⁻¹ s⁻¹	0.00089 s⁻¹	0.049	0.094	0.199	0.356	0.499	0.763	–	0.98	–

More lines, main results first:

Kd (GPNMB [1])	ka (GPNMB [1])	kd (GPNMB [1])	Avg OD (GPNMB [2]; 12.3 ng/mL)	Avg OD (GPNMB [2]; 37 ng/mL)	Avg OD (GPNMB [2]; 111 ng/mL)	Avg OD (GPNMB [2]; 333 ng/mL)	Avg OD (GPNMB [2]; 1 μg/mL)	Avg OD (GPNMB [2]; 3 μg/mL)	Bin (GPNMB [4])	Molecule	Geo Mean Ratio of anti-GPNMB Staining (relative to pK16) (TK10 cells)	staining of tissue specimens [3]
122 nM	11842 M⁻¹ s⁻¹	0.00144 s⁻¹	–	–	–	–	–	–	–	Mab1.7.1: human anti-GPNMB antibody; VH SEQ ID NO: 56, VL SEQ ID NO: 65 (antibody, listed as Homo sapiens, V domains shown) VH: QVQLQESGPGLVKPSQTLSLTCTVSGGSISSANYYWTWIRQHPGKGLEWIGYIYYSGSTYCNPSLKSRVIISVDTSKNQFSLKLSSVTAADTAVYYCARGYNWNYFDYWGQGTLVTVSSA VL: DIVMTQSPATLSVSPGERATLSCRASQSVSSNLAWYQERPGQAPRLLIYGASTRATGIPARFSGSGSGTEFTLTISSLQSEDFAVYYCQQYNKWPPWTFGQGTKVEIER	–	–
–	–	–	–	–	–	–	–	–	Bin 1	Mab2.22.1: human anti-GPNMB antibody; VH SEQ ID NO: 164, VL SEQ ID NO: 173 (antibody, listed as Homo sapiens, V domains shown) VH: QVQLEQSGPGLVKPSQNLSLTCTVSGGSISSGGYFWSWIRQHPGKGLEWIGYIYYSGNTYYNPSLKSRVTISVDTSKNQFSLKLSSVTAADTAVYYCARDYYYDTSGFSYRYDWYYGMDVWGQGTTVTVSSA VL: DIQLTQSPSSLSASVGDRVTITCRASQGIRNDLGWYQQKPGKAPKRLIYAASSLQNGVPSRFSGSGSGTEFTLTISSLQPEDFATYYCLQHNTYPAFGQGTKVEIKR	1.10	Positive staining
